Measured values taken from patent US20240350596.

The substances below were run on ghrelin (acylated; [3H]-ghrelin labeled on the octanoic acid moiety of the acylated Ser3).
“BChE mutant A199S/F227A/P285Q/S287G/A328W/Y332G” was tested, and the Relative catalytic efficiency for ghrelin (Relative to CocH3) (fold relative to CocH3) was 3.
“BChE mutant A199S/F227A/P285S/S287G/A328W/Y332G” gave a Relative catalytic efficiency for ghrelin (Relative to CocH3) (fold relative to CocH3) of 2.
Substance BChE mutant A199S/S287G/A328W/Y332G has a Relative catalytic efficiency for ghrelin (Relative to CocH3) (fold relative to CocH3) of 2.
BChE mutant F398I was tested, and the Relative catalytic efficiency for ghrelin (Relative to CocH3) (fold relative to CocH3) was 2.
With BChE mutant T284S/P285I/F398I the Relative catalytic efficiency for ghrelin (Relative to CocH3) (fold relative to CocH3) was 3.
Substance BChE mutant T284S/P285I/V288I has a Relative catalytic efficiency for ghrelin (Relative to CocH3) (fold relative to CocH3) of 3.
For BChE mutant T284S/P285I/V288I/F398I, the Relative catalytic efficiency for ghrelin (Relative to CocH3) (fold relative to CocH3) was 3.
“BChE-M02 (A199S/F227A/P285A/S287G/A328W/Y332G mutant of human BChE)” was tested, and the Relative catalytic efficiency for ghrelin (Relative to CocH3) (fold relative to CocH3) was 3.
For “CocH3 (A199S/F227A/S287G/A328W/Y332G mutant of human BChE)”, the Relative catalytic efficiency for ghrelin (Relative to CocH3) (fold relative to CocH3) was 1.
Work on Wild-type human BChE yielded a Relative catalytic efficiency for ghrelin (Relative to CocH3) (fold relative to CocH3) of 1.5.
